This data set is described as follows: yeast display, Sf9 membrane polyspecificity reagent, FACS + sequencing; frameworks hold sequencing errors. In a few lines: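 Using colony PCR, genes from sorted yeast display clones were amplified, then sequenced on MiSeq at 2 × 250 and filtered by CDR length. The clones had been stained with 10% biotinylated, detergent-solubilized Sf9 membrane reagent for 1 hour at 4 °C and sorted by FACS into low and high (top ~1%) gates on anti-HA and streptavidin fluorescence. Polyreactivity labels come from the gate of origin.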
As to “QVQIVESGGGLVQAGGSLRLSCAASGSTFYEYAMGWYRQAPGKERELVATITSGGRTYYADSVKGRFTISRDNAKNTVYLQMNSLKPEDTAVYYCAAAGKGRFHFRSTMDYWGQGSQVTVSS”, the “polyreactivity (PSR sort gate)” value is “high polyreactivity”.
To “QVQLVESGGGLVQAGGSLSLSCAASGFIFSYYVMGWYRQAPGKERELVAAINESGGRTYYADSVKGRFTISRDNAKNTVYLQMNSLNPEDTAVYYCAASVLNKIQGYRDYYWGQGTQVTVSS” belongs “low polyreactivity”; to “QVQLVESGGGLVQAGGSLRLSCAASGFTFWQYAMGWYRQAPGKERELGAAITWDGGSTYYADSVKGRFTISRDTAKNTVYLQMNSLKPEDTAVYYRAKLFGGTYYEYDYWGQGTQVTVSS”, “low polyreactivity”; to “QVQLQESGGGLVQAGGSMRLSCAASGYNTIEVTRAGFSRRRAKNANLLPLLITVVLPIKRIAQNTISRDNAKNTVYLQMNSLKPEDTAVYNCAANTIGTDLYEYWGQGTQATVSS”, “low polyreactivity”.
Consider “QVQLVESGGGLVQAGGSLRLSCAASGSTFEVYVMGWYRQAPGKERELVAGISKRGGRTYYADSVKGRFTISRDTEKNTVYLQLNSLKPEDTAVYYCAADAPGHEYYYWGQGTQVTVSS”, for which the “polyreactivity (PSR sort gate)” value is on record as “high polyreactivity”.
Regarding “QVQLVESGGGLVQAGGSLRLSCAASGFTFVINDMGWYRQAPGKERELVADITSGGDTYYADSVKGRFTISRDNAKNTVYLQMNSLKAEDTAVYYCAADIYPDWIYLLYGYWGQGTQVTVSS”, the “polyreactivity (PSR sort gate)” value is “low polyreactivity”.
To “QVQLVETGGGLDQAGGSLRLSCAASGRTFLLYAMGWYRQAPGKERELVARITGRGGRTYYADSVKGRFTISRDNAKNTVYLQMNSLKPEDTAVYYCNAKGYQGQWERYDYWGQGTEVTVSS” belongs “high polyreactivity”; to “QLQLVESGGGLVQAGGSLRLSCAASGSIFRVYAMGWYRQARGKERELVAAISSSGVRTSYADSVKGRFTISRDNAKNTVYLQMNSLKPEDTAVYYCADRYPYGYYHWGQGTQVTVSS”, “high polyreactivity”; to “QVQLVESGGGLVQAGGSLRLSCAASGSIFGTNAMGWYIQAPGKEREFVATISSRTGSTYYADSVKGRFTFSRDNAKNTVYLQMNSLKPEDTAVYYCAAVRWYGKYDYWGQGTQVTVSS”, “low polyreactivity”.
As to “QVQLVESGGGLVQAGGSLRLSCAASGSIFTSYAIGWYRQAPGKERELVAGIDWSGGGTYYADSVKGRFTISRDNAKNTVYLQMNSLKPEDTAVYYCNADGPYTRYGPVDYWGQGTQVTVSS”, the “polyreactivity (PSR sort gate)” value was “low polyreactivity”.
In the case of “QVQHVESGGGLVQAGVSLRLSCAASGSIFVNNGMGWYRQAPGKERELVAAIRLSTGSTYYADSVKGRFTISRDNAKNTVYLQMNSLKPEDTAVYYCATRSYIWGNWGQGTQVTVSS”, the “polyreactivity (PSR sort gate)” value is recorded as “high polyreactivity”.
In the case of “QVQLVESGGGLVQAGGSLRLSCAASGRTFKSYAMGWYRQAPGKERELVAAISKRGGSTYYADSVKGRFTISRDNAKNTVYLQMNSLKPADTAVYYCNKLYLKPGRYYYWGQGTQVTVSS”, the “polyreactivity (PSR sort gate)” value is reported as “high polyreactivity”.
The result for “QVQLVESGGGLVQAGGSLRLSCAASGSTFYTNAMGWYRQAPGKERELVAVITYRGGSTYYADSVKGRFTISRDNAKNTVYLQMNSLKPEDTAVYYCNARGTVPWYGYDYWGQGTQVTVSS” reads “high polyreactivity”.
For the sequence “QVQLVESGGGLVQAGGSLRLSCAASGRIFWPYAMGWYRQAPGKERELVAAISSSGGSTYYADSVKGRFTISRDNAKNTVYLQRNSLKPEDTAVYYCNAYSGLSYRYGYSYWGQGTQVTVSS”, the “polyreactivity (PSR sort gate)” value is recorded as “high polyreactivity”.
In the case of “QVQLVESGGGLVKAGGSLRLSCAASFFFYDMGWYRQAPGKERELVAAISWRGDTTYYADSVKGRFTISRDNAKNTVYLQMNSLKPEDTAVYYCAADYYGNVVYPSYYWGQGTQVTVSS”, the “polyreactivity (PSR sort gate)” value is recorded as “high polyreactivity”.
On to “QVQLVESGGGLVQAGGSLRLSCAASGSIIAGNVMGWYRQAPGKERELVAAISRRGGRTYYADSVKGRFTISRDNAKNTVYLQMNSLKPEDTAVYYCAARRDPVLGKSDFWGQGTQVTVSS”, for which the “polyreactivity (PSR sort gate)” value is reported as “high polyreactivity”.
Consider “QVQLVESGGGLVQAGGSLRLSCAASGSTFGGYAMGWYRQAPAKERELVAAISTSGGNTYYADSVKGRFTISRDNAKNTVYLQMNRLKPEDTAVYYCARDRVSWGGQDSWGQGTQVSVSS”, for which the “polyreactivity (PSR sort gate)” value is on record as “high polyreactivity”.
To “QVQLVESGGGLVQAGGSLRLSCAASGRIFPLNAMGWYRQAPGKERELVAAIRNGGRTNYADSVKGRFTISPDNAKNTVYVQMNSLKPEDTAVYYCSFTLSSVLQYDSWGQGTQVTVSS” belongs “low polyreactivity”; to “QVQLVESGGGLVQAGGSLRLSCASSGLIFKKYTIGWYRQGPGKERELVASISKSGGSTYYADSVKGRFTISRDNAKNTVYLQMNSLNPEDTAVYYCNSVNHYIGFDYWGQGTQVTVSS”, “low polyreactivity”; to “QVQLVESGGGLVQAGGSLRLSCAASGRTFKLNAMGWYRQAPGKERELVAAISRNGGSTYYADSVKGRFTISRDNAKNTVYLQMTSLKPEDTAVYYCAAVRHGVSLAGYYWGQGTQVTVSS”, “high polyreactivity”.
The result for “QVQLVESGGGLVQAGGSLRLSCAASGRTFEYYAMGWYRQAPGKERELVASISFGGGSTYADSVKGRFTISRDNAKNTVYLQMNSLKPEDTAVYYCAATGGWYKHWFDYWGQGTQVTVSS” reads “low polyreactivity”; that for “QVQLVESGGGLVQAAGSLRLICAASGRTFDSYAMGRYRQAPGKEREFVAAISYSGTSTYYADSVKGRFTISRDDAKNTVYLQMNSLKPEDTAVYYCAKEYIFRLWGQGTQVTVSS”, “low polyreactivity”; that for “QVQLVDSGGGLVQAGGSLRLSCAASGSIFVHYAMGWSRQAPGKEWELVAAITSSGGRTYYADSVKGRFTISRDNAKKTVYLQMNSLKPEDTEVYYCAAKQGRYNIYSNYDYWGQGTQVTVSS”, “high polyreactivity”.
Regarding “QVQLQESGRGLVQAGGSLRLSCAASGYISYFVGMGWYRQAPGKEREFVASIADGSNTYYADSVKGRFTISRDNAKNTVCLQRNSLKPEVTAVYYCAVEDSWTYRFDYWGEGTQVTVSS”, the “polyreactivity (PSR sort gate)” value was “high polyreactivity”.
Take “QVQLVESGAGLVQAGGSLRLSCAPSGIIFYWNTMAWYRQAPGKERELVAAISSRSGSTYYADSVKGRFTISRDNAKNTVYLQMISLKPEDTAVFYCAARYGYRYADKGTDYGYWGQGTQVTVSS”: the “polyreactivity (PSR sort gate)” value was “high polyreactivity”.
For “QVQLVESGGGLVQAGGSLRLSCAASGLTFGRYAMGWYRQAPGKERELVAAITRSGGRTYYADSVKGRFTISRDNAKNTVYLQMNSLKPEDTAVYYCNKLSHLGAPGDPDDYWGQGTQVTVSS”, the “polyreactivity (PSR sort gate)” value is “high polyreactivity”.
Turning to “QVQLVESGGGLVQAGGSLRLSCAASGRTFGYYAMGWYRQAPGKERELVAAISRSGGSTYYADSVKGRFTISGDNAKNTVYLQMNSLKPEDTAVYYCAVKGYVKSDYWGQGTQVTVSS”, the “polyreactivity (PSR sort gate)” value was “high polyreactivity”.
Consider “QVQLVESGGGLVQAGGILRLSCAASGSTFYSYAMGWYRQAPGKERELVAYIDWSGGYTYYADSVKGRFTISRDNAKNTVYLQMNSLKPEDTAVYYCNAERGATGYYVTGDDYWGQGTQVTVSS”, for which the “polyreactivity (PSR sort gate)” value was “low polyreactivity”.
With “QVQLVESGGGLVHAGGSLRLSCAACGSIYKYNAMGWYRQAPGKERELVAAISYSGCSTYYSDSVNGRFTISRDNAKNTVYLQMNSLKPEDTAVYYCAKSPRASQYNMYDYWGQGTKVTVSS”, the “polyreactivity (PSR sort gate)” value is “high polyreactivity”.
With “QVQLVESGGGLVQAGGSLRLSCAASGSIAMGWYRQAPGKERELVATISSSGGSTYYADSVKGRFTISRDNAKNTVYLQMNSLKPEDTAVYYCNTPQYLGPLYSEFDYWGQGTQVTVSS”, the “polyreactivity (PSR sort gate)” value is “low polyreactivity”.
The result for “QVQLVESGGGLVQAGGSLRLSCAASESIFVRNAMGWYRQAPGKERELVASITYSGSRTYYADSVKGRFTISRDNAKNTVYLQMNRLKPEDTAVYYCAKVRVLVDKWSTFYEYYYWVQGTQVTVSS” reads “low polyreactivity”; that for “QVQLVESGGGLVQAGGSLRLSCAASGSTFVLYAMGWYRQAPGKERELVADITWSGGSTYYADSVKGRFTISRDNAMNTVYLLMNSLKPEDTAVYYCAARYPWVYYDFDYWGQGTQVTVSS”, “low polyreactivity”.
With “QVQLVESGVGLVQAGGSLRLSCAASGSTFNYYAMGWYRQAPGKERELVAAISSRSSRTFYADSVKGRFTISRDNAKNTVYLQMHSVKPEDTAVYYCAVKKSAPDGDYWGQGTQVTVSS”, the “polyreactivity (PSR sort gate)” value was “high polyreactivity”.
Consider “QVQLVESGGGLVQAGGSHRLSCAASGSTRYYMGWYRQAPGKEREFVARITWSGTRTYYADSVKGRFTISRDNAKNTVYLQMNSLKPEDTAVYYCNAGVVWGQGTQVTVSS”, for which the “polyreactivity (PSR sort gate)” value was “high polyreactivity”.
In the case of “QVQLVESGGGLVQAGGSLRLSCAASGFTFDLYAMGWYRQAPGKERELVAAISWSGGSTRYADSVKGRFTISRDNAKNTVYLQMNSLKPEDTAVYYCARQPRLYFKGKLYGYWGQGTQVTVSS”, the “polyreactivity (PSR sort gate)” value is reported as “high polyreactivity”.
For the sequence “QVQLVESGGGLVQAGGSLRLSCAASGSTFGIYVMGWYRQAPGKERELVATISSSGGRTYYADSVKGRFTISRDNAKNTVYLQMNSLKPEDTAVYYCAADGYIDISPGYYYTYDYWGQGTQVTVSS”, the “polyreactivity (PSR sort gate)” value was “low polyreactivity”.
To “QVQLVESGGGLVQAGGRLRLSCAASGRTFYTYAMGWYRQAPGKERELVAAITSGGSTYSADSVKGRFTISRDNAKNTVYLQMNSLKPEDTAVYYCAAEFYYWRGFDYWGQGTQVTVSS” belongs “low polyreactivity”; to “QVQLVESGGGLVQAGGSLRLSCAASGSTYVYYAMGWYRQAPGKERELVAAISSSGGSTYYADSVKGRFTISRDNAKNTVYLQMNILKPEDTAVYYCNRYSSYIPYPYNYWGQGTQVTVSS”, “high polyreactivity”; to “QVQLVESGGGLVQAGGSLRLSCAASGFIFTVYAMGWSRQAPGKERELVAAISRGGGSTSYADSVKGRFTISRDNAKNTVYLQMNSLKPEDTAVYYCNAKYKYSRGYDYWGQGTQVTVSS”, “high polyreactivity”.
Regarding “QVQLVESGGGLVQAGGSLRLSCAASGIIFQRNDIGWYREAPGKERELVANIRDGGITYADSVKGRFTISRDNAKNTVYLQMNSLKPDDTAVYYCALEDTSPGYGDQSSNAAYYYWGQGTQVTVSS”, the “polyreactivity (PSR sort gate)” value is “low polyreactivity”.
Turning to “QVQLVESGGGLVQAGGSLRLSSAASGRIFYPYTIGWYRQAPGKERELVAAISSTGRTNYADSVKGRFTISRDNAKNTVYLQMNSVKPEDTAVYYCAKGFRKYSLGPPGNDYWGQGTQVTVSS”, the “polyreactivity (PSR sort gate)” value is “high polyreactivity”.

(Values after the nanobody polyreactivity screen of Harvey et al. (2022).)
